In patent US20230265151A1, “GIP/GLP1 CO-AGONIST COMPOUNDS” (priority 2020, published 2023):

T1: human GIP receptor (human, UniProt P48546 22-466)
T1 sequence (looked up): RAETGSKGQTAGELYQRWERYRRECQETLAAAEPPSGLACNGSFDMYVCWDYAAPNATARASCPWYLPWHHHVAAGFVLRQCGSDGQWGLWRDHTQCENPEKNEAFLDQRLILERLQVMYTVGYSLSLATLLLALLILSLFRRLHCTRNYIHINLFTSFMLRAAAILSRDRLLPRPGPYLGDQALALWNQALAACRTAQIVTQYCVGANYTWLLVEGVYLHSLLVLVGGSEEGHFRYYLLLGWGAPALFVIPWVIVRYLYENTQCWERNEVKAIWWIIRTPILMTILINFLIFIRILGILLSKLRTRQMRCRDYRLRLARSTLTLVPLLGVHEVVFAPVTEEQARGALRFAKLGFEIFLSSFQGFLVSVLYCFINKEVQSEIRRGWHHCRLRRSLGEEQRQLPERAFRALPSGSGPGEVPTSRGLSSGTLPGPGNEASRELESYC

T2: human GIP receptor (human) (UniProt P48546)
T2 sequence (looked up): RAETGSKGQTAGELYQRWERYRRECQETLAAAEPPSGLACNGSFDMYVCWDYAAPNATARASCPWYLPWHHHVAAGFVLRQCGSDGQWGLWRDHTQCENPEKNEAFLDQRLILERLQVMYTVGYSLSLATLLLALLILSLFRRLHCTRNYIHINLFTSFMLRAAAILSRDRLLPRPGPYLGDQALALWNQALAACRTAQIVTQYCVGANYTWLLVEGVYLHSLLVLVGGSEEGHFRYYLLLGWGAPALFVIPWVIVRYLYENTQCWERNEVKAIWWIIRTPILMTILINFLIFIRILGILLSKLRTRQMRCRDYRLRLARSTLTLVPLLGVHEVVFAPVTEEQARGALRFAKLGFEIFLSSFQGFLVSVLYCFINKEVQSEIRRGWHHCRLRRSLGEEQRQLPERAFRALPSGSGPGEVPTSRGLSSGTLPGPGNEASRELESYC

T3: human GIP receptor (human, UniProt P48546 22-466)
T3 sequence (looked up): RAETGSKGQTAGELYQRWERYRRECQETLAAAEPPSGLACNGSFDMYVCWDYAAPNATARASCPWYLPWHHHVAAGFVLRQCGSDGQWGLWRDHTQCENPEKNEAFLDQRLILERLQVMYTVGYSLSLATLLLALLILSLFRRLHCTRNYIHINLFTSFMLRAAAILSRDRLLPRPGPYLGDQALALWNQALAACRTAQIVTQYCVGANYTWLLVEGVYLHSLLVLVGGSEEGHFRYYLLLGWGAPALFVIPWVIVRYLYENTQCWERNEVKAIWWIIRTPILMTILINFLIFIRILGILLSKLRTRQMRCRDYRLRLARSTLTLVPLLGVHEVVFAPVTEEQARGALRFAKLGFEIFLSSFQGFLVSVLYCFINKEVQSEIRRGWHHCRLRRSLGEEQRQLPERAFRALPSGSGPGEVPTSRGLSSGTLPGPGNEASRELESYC

B1: Example 331 (peptide)
peptide: YXEGTXTSDXXIXLDXIAQXKFIXXLIKGGPSSGAPPPS
modifications: Y-Aib-EGT-αMeF(2F)-TSD-4Pal-Aib-I-αMeL-LD-Orn-IAQ-Aib-K(2-[2-(2-Amino-ethoxy)-ethoxy]-acetyl)2-(γ-Glu)-(11-(4-carboxyphenoxy)undecanoyl)FI-(D-Glu)-αMeY-LIK((2-[2-(2-Amino-ethoxy)-ethoxy]-acetyl)2-(γ-Glu)-(11-(4-carboxyphenoxy)undecanoyl)GGPSSGAPPPS-NH2)
B2: Example 352 (peptide)
peptide: YXEGTXTSDYXIXLDXKAQXXFIXXLIKGGPSSGAPPPS
modifications: Y-Aib-EGT-αMeF(2F)-TSDY-Aib-I-αMeL-LD-Orn-K((2-[2-(2-Amino-ethoxy)-ethoxy]-acetyl)2-(γ-Glu)-(10-(4-carboxyphenoxy)decanoyl))AQ-Aib-Om-FI-(D-Glu)-αMeY-LIK((2-[2-(2-Amino-ethoxy)-ethoxy]-acetyl)2-(γ-Glu)-(10-(4-carboxyphenoxy)decanoyl))GGPSSGAPPPS-NH2
B3: Example 354 (peptide)
peptide: YXEGTXTSDXXIXLDXIAQXXFIKXLIKGGPSSGAPPPS
modifications: Y-Aib-EGT-αMeF(2F)-TSD-4Pal-Aib-I-αMeL-LD-Orn-IAQ-Aib-Orn-FIK((2-[2-(2-Amino-ethoxy)-ethoxy]-acetyl)2-(γ-Glu)-(10-(4-carboxyphenoxy)decanoyl))-αMeY-LIK((2-[2-(2-Amino-ethoxy)-ethoxy]-acetyl)2-(γ-Glu)-(10-(4-carboxyphenoxy)decanoyl))GGPSSGAPPPS-NH2
B4: Example 337 (peptide)
peptide: YXEGTXTSDXXIXLDXKAQXEFIXXLIKGGPSSGAPPPS
modifications: Y-Aib-EGT-αMeF(2F)-TSD-4Pal-Aib-I-αMeL-LD-Orn-K((2-[2-(2-Amino-ethoxy)-ethoxy]-acetyl)-(γ-Glu)-CO-(CH2)12-CO2H)AQ-Aib-EFI-(D-Glu)-αMeY-LIK((2-[2-(2-Amino-ethoxy)-ethoxy]-acetyl)-(γ-Glu)-CO-(CH2)12-CO2H)GGPSSGAPPPS-NH2
B5: Example 336 (peptide)
peptide: YXEGTXTSDXXIXLDXKAQXKFIXXLIEGGPSSGAPPPS
modifications: Y-Aib-EGT-αMeF(2F)-TSD-4Pal-Aib-I-αMeL-LD-Orn-K((2-[2-(2-Amino-ethoxy)-ethoxy]-acetyl)-(γ-Glu)-CO-(CH2)12-CO2H)AQ-Aib-K((2-[2-(2-Amino-ethoxy)-ethoxy]-acetyl)-(γ-Glu)-CO-(CH2)12-CO2H)FI-(D-Glu)-αMeY-LIEGGPSSGAPPPS-NH2
B6: Example 340 (peptide)
peptide: YXEGTXTSDXXIXLDXIAQXKFIXXLIKGGPSSGAPPPS
modifications: Y-Aib-EGT-αMeF(2F)-TSD-4Pal-Aib-I-αMeL-LD-Orn-IAQ-Aib-K((2-[2-(2-Amino-ethoxy)-ethoxy]-acetyl)-(γ-Glu)-CO-(CH2)12-CO2H)FI-(D-Glu)-αMeY-LIK((2-[2-(2-Amino-ethoxy)-ethoxy]-acetyl)-(γ-Glu)-CO-(CH2)12-CO2H)GGPSSGAPPPS-NH2
B7: Example 351 (peptide)
peptide: YXEGTXTSDXXIXLDXKAQXXFIXXLIKGGPSSGAPPPS
modifications: Y-Aib-EGT-αMeF(2F)-TSD-4Pal-Aib-I-αMeL-LD-Orn-K((2-[2-(2-Amino-ethoxy)-ethoxy]-acetyl)2-(α-Glu)-(10-(4-carboxyphenoxy)decanoyl))AQ-Aib-Om-FI-(D-Glu)-αMeY-LIK((2-[2-(2-Amino-ethoxy)-ethoxy]-acetyl)2-(γ-Glu)-(10-(4-carboxyphenoxy)decanoyl))GGPSSGAPPPS-NH2

Assays:
Test in all cases: cell-based or functional assay
human GLP-1 receptor [1] = biological target: human GLP-1 receptor (human, UniProt P43220 24-463)
human GIP receptor [2] = biological target: T1, human GIP receptor
human glucagon receptor [3] = biological target: human glucagon receptor (human, UniProt P47871 26-477)
[4] = biological target: T2, human GIP receptor (human)
hGLP-1R = hGLP-1R (Homo sapiens, UniProt P43220)
[5] = biological target: human glucagon receptor (human) (UniProt P47871)
human glucagon receptor [6] = biological target: human glucagon receptor (human, UniProt P47871 26-477); remark: listed apart in the source
Target sequence in this assay (P47871 26-477): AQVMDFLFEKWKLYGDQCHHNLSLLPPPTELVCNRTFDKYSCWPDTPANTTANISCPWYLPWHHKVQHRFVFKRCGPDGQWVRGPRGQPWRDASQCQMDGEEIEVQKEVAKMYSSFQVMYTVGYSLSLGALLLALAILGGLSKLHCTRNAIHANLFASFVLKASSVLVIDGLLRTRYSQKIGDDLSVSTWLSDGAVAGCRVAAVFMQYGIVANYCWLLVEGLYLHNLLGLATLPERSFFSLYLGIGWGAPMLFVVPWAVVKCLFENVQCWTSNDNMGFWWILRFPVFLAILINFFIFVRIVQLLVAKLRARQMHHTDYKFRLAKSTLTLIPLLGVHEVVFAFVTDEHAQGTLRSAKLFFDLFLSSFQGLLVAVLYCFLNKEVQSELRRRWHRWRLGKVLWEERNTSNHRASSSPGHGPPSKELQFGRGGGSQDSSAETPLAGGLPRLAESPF

human GLP-1 receptor [7] = biological target: human GLP-1 receptor (human, UniProt P43220 24-463); remark: listed apart in the source
human GIP receptor [8] = biological target: T3, human GIP receptor; remark: listed apart in the source

Binder	cAMP EC50 (1.0% HSA) (human GLP-1 receptor [1]) [nM]	cAMP Emax (1.0% HSA) (human GLP-1 receptor [1]) [%]	cAMP EC50 (1.0% HSA) (human GIP receptor [2]) [nM]	cAMP EC50 (1.0% HSA) (human glucagon receptor [3]) [µM]	cAMP EC50 [4] [nM]	cAMP Emax [4] [%]	cAMP EC50 (hGLP-1R) [nM]	cAMP Emax (hGLP-1R) [%]	cAMP EC50 [5] [µM]	cAMP Emax (1.0% HSA) (human GIP receptor [2]) [%]	cAMP EC50 (1.0% HSA) (human glucagon receptor [6]) [µM]	cAMP EC50 (1.0% HSA) (human GLP-1 receptor [7]) [nM]	cAMP Emax (1.0% HSA) (human GLP-1 receptor [7]) [%]	cAMP EC50 (1.0% HSA) (human GIP receptor [8]) [nM]	cAMP Emax (1.0% HSA) (human GIP receptor [8]) [%]
B1	223	114	8.31	> 9.95	0.0113	101	0.436	99.6	> 9.95						
B2	5.46	93.5	0.277	> 9.95	0.0106	98.3	0.262	99.5	> 9.95	71.3					
B3											> 9.95	7.25	95.9	0.857	67.5
B4	53.6		2.65	> 10.1	0.0151	103	0.444	107	> 10.1						
B5	47	103	2.92	> 10.1	0.0136	109	0.338	107	> 10.1						
B6	122	112	9.91	> 9.95	0.0206	95.2	0.409	105	> 9.95	87.9					
B7	5.8	91	0.722	> 9.95	0.0185	102	0.397	100	> 9.95	67.9					
